# Laboratory results: paper doi:10.1101/2020.05.04.070177, “Mechanistic insights into RNA binding and RNA-regulated RIG-I ubiquitination by TRIM25” (bioRxiv, 2020)
# Key:
# TRIM25 PRY/SPRY = TRIM25 PRY/SPRY (UniProt Q14258 439-630); test: ITC; ITC and filter binding: 20 mM MES pH 6.5, 75 mM NaCl, 0.5 mM TCEP (ITC 20 C, filter binding on ice); NMR: 20 mM Na phosphate pH 6.5, 150 mM NaCl, 2 mM TCEP, 293 K; settings: protein: recombinant; tags: His-Trx (removed); chain copies: 3; hairpin
# TRIM25 CC = TRIM25 CC (UniProt Q14258 189-379); test: as above; settings: protein: recombinant; tags: His-Trx (removed); chain copies: 2; hairpin
# Sequence of TRIM25 CC (Q14258 189-379): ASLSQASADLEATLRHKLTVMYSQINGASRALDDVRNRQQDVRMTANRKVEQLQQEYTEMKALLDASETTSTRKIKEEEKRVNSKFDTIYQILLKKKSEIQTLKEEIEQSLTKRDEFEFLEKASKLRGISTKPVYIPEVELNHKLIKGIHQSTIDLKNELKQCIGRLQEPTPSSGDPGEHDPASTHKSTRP
# TRIM25 CC-PRY/SPRY [1] = biological target: T1, TRIM25 CC-PRY/SPRY (UniProt Q14258 189-630); test: filter binding; ITC and filter binding: 20 mM MES pH 6.5, 75 mM NaCl, 0.5 mM TCEP (ITC 20 C, filter binding on ice); NMR: 20 mM Na phosphate pH 6.5, 150 mM NaCl, 2 mM TCEP, 293 K; settings: protein: recombinant; tags: His-Trx (removed); chain copies: 2; hairpin
# T1 sequence (Q14258 189-630): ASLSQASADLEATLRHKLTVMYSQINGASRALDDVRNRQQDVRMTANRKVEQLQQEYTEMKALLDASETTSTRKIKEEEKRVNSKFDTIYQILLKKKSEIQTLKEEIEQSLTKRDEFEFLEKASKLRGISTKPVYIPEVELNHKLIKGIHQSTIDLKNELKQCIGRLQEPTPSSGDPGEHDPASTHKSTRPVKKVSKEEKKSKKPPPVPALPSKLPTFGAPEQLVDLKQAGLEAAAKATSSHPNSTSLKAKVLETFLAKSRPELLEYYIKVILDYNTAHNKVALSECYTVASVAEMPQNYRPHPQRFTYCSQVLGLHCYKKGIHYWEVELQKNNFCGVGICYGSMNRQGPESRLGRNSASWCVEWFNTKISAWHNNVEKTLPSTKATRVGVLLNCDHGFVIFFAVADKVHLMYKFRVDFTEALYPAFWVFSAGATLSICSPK
# [2] = biological target: T2, TRIM25 CC-PRY/SPRY penta-mutant (UniProt Q14258 189-630, K283A;K285A;H505E;K508E;K602E); test: ITC; first of two fitted sites; ITC and filter binding: 20 mM MES pH 6.5, 75 mM NaCl, 0.5 mM TCEP (ITC 20 C, filter binding on ice); NMR: 20 mM Na phosphate pH 6.5, 150 mM NaCl, 2 mM TCEP, 293 K; settings: protein: recombinant; tags: His-Trx (removed); chain copies: 2; hairpin
# T2 sequence (Q14258 189-630 K283A/K285A/H505E/K508E/K602E): as the sequence (Q14258 189-630) above, with K95A, K97A, H317E, K320E, K414E counted along it
# [3] = biological target: T3, TRIM25 CC-PRY/SPRY Y463S/Y476S (UniProt Q14258 189-630, Y463S;Y476S); test: as above; settings: protein: recombinant; tags: His-Trx (removed); chain copies: 2; hairpin
# T3 sequence (Q14258 189-630 Y463S/Y476S): as the sequence (Q14258 189-630) above, with Y275S, Y288S counted along it
# [4] = biological target: T4, TRIM25 CC-PRY/SPRY K283A/K285A (UniProt Q14258 189-630, K283A;K285A); test: as above; settings: protein: recombinant; tags: His-Trx (removed); chain copies: 2; hairpin
# T4 sequence (Q14258 189-630 K283A/K285A): as the sequence (Q14258 189-630) above, with K95A, K97A counted along it
# [5] = biological target: T5, TRIM25 CC-PRY/SPRY triple mutant (UniProt Q14258 189-630, H505E;K508E;K602E); test: as above; settings: protein: recombinant; tags: His-Trx (removed); chain copies: 2; hairpin
# T5 sequence (Q14258 189-630 H505E/K508E/K602E): as the sequence (Q14258 189-630) above, with H317E, K320E, K414E counted along it
# TRIM25 CC-PRY/SPRY K602E [6] = biological target: T6, TRIM25 CC-PRY/SPRY K602E (UniProt Q14258 189-630, K602E); test: as above; settings: protein: recombinant; tags: His-Trx (removed); chain copies: 2; hairpin
# T6 sequence (Q14258 189-630 K602E): as the sequence (Q14258 189-630) above, with K414E counted along it
# [7] = biological target: T7, TRIM25 CC-PRY/SPRY H505E/K508E (UniProt Q14258 189-630, H505E;K508E); test: as above; settings: protein: recombinant; tags: His-Trx (removed); chain copies: 2; hairpin
# T7 sequence (Q14258 189-630 H505E/K508E): as the sequence (Q14258 189-630) above, with H317E, K320E counted along it
# TRIM25 CC-PRY/SPRY [8] = biological target: T1, TRIM25 CC-PRY/SPRY; test: ITC; highest affinity site; ITC and filter binding: 20 mM MES pH 6.5, 75 mM NaCl, 0.5 mM TCEP (ITC 20 C, filter binding on ice); NMR: 20 mM Na phosphate pH 6.5, 150 mM NaCl, 2 mM TCEP, 293 K; settings: protein: recombinant; tags: His-Trx (removed); chain copies: 2; hairpin
# [9] = biological target: T2, TRIM25 CC-PRY/SPRY penta-mutant; test: ITC; second fitted site; ITC and filter binding: 20 mM MES pH 6.5, 75 mM NaCl, 0.5 mM TCEP (ITC 20 C, filter binding on ice); NMR: 20 mM Na phosphate pH 6.5, 150 mM NaCl, 2 mM TCEP, 293 K; settings: protein: recombinant; tags: His-Trx (removed); chain copies: 2; hairpin
# [10] = biological target: T3, TRIM25 CC-PRY/SPRY Y463S/Y476S; test: as above; settings: protein: recombinant; tags: His-Trx (removed); chain copies: 2; hairpin
# [11] = biological target: T4, TRIM25 CC-PRY/SPRY K283A/K285A; test: as above; settings: protein: recombinant; tags: His-Trx (removed); chain copies: 2; hairpin
# [12] = biological target: T5, TRIM25 CC-PRY/SPRY triple mutant; test: as above; settings: protein: recombinant; tags: His-Trx (removed); chain copies: 2; hairpin
# TRIM25 CC-PRY/SPRY K602E [13] = biological target: T6, TRIM25 CC-PRY/SPRY K602E; test: as above; settings: protein: recombinant; tags: His-Trx (removed); chain copies: 2; hairpin
# [14] = biological target: T7, TRIM25 CC-PRY/SPRY H505E/K508E; test: as above; settings: protein: recombinant; tags: His-Trx (removed); chain copies: 2; hairpin
# Sequence of TRIM25 PRY/SPRY (Q14258 439-630): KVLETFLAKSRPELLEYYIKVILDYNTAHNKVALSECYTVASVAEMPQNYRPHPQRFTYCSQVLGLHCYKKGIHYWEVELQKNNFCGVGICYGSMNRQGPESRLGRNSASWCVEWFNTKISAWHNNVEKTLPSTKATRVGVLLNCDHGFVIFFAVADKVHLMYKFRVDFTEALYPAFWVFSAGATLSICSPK
binder,measurement,setting,value
GUAUAGUUUAAAAGGAGAUAACUAUAC (structured_RNA) [pre-let-7a-1@2],Kd,TRIM25 PRY/SPRY,5000 ± 1200 nM
same,Kd,TRIM25 CC,8100 ± 3100 nM
same,Kd,TRIM25 CC-PRY/SPRY [1],10.2 ± 3.8 nM
same,Kd,[2],1320 ± 370 nM
same,Kd,[3],252 ± 61 nM
same,Kd,[4],606 ± 124 nM
same,Kd,[5],790 ± 160 nM
same,Kd,TRIM25 CC-PRY/SPRY K602E [6],196 ± 22 nM
same,Kd,[7],484 ± 48 nM
same,Kd,TRIM25 CC-PRY/SPRY [8],72 ± 33 nM
same,Kd,[9],124000 ± 28000 nM
same,Kd,[10],17000 ± 11000 nM
same,Kd,[11],16600 ± 2100 nM
same,Kd,[12],132000 ± 24000 nM
same,Kd,TRIM25 CC-PRY/SPRY K602E [13],2540 ± 120 nM
same,Kd,[14],4190 ± 500 nM
